Reference: article PMC4289141

Experiments:
[1] = biological target: ^C81/C96RIDC1 (the C81/C96 double mutant of Rosetta Interface Designed Cytochrome 1) (UniProt P0ABE7); test: AUC
[2] = biological target: ^C81/C96RIDC1 (the C81/C96 double mutant of Rosetta Interface Designed Cytochrome 1) (UniProt P0ABE7); test: cross-linking

stoichiometry N [1]: 4 | abundance of polymeric species (19:1 GSH/GSSG, 1 mM, 1 day) [2]: 13% | abundance of the tetramer (air oxidation, room temperature) [2]: 48% | yield of the tetramer (19:1 GSH/GSSG, 1 mM, 1 day) [2]: 63%
Substance: ^C81/C96RIDC1 (the C81/C96 double mutant of Rosetta Interface Designed Cytochrome 1) (from UniProt P0ABE7 23-128) (natural protein)
